Measurements as given in patent publication US20230108300A1 (University of Pennsylvania, published 2023).

Biological target: MART1 clone DMF4 TCR (includes the TCRvβ12 segment) expressed on SupT1 cells
Test: cell-based or functional assay

B1: Vβ12-targeting CAR (construct not specified for the experiment) (other)
VH: EVMLVESGGGLVKPGGSLKLSCAASGFTFRSYAMSWVRQTPEKRLEWVATISSGGSYTNYPDSVKGRFTISRDNAKNTLNLQMNSLRSEDTAMYYCARGYHGYLDVWGAGTTVTVSS
VL: DILLTQSPAFLSVSPGERVSFSCRASQSIGTSIHWYQQRTNGSPRLLIKYASESFSGIPSRFSGSGSGTDFTLSISSVESEDIADYYCQQSYSWPYTFGGGTKLEIK
lysis of the target cell lines at three E:T ratios: ~100%
